We go through seven compounds from US6251583A, “Peptide substrates for HCV NS3 protease assays” (Schering Corporation, priority 1999, dated 2001).

In one test the target is T1, NS3/4A(1-631)/4A(1-54) (Hepatitis C virus genotype 1a, UniProt P27958).
T1 construct: a noncovalent complex between NS4A (54 residues) and NS3 (631 residues); histidine tag (N, cleaved yes); made in house; host or cells: baculovirus system / insect cells
In words: Cleavage efficiency of nitrophenyl and other ester based chromogenic substrates, spectrophotometric. Type of test: biochemical, HCV 1a(H). Particulars: 25 mM MOPS pH 6.5, 10% glycerol, 0.15 M NaCl, 0.2% lauryl maltoside. As to the method:
The chromogenic substrates defined by SEQ ID NOs: 5-13 were synthetically produced as described above and tested for cleavage efficiency in 25 mM MOPS buffer, pH 6.5, containing 10% (v/v) glycerol, 0.15 M NaCl, 0.2% lauryl maltoside. The substrates were cleaved by NS3/4A(1-631)/4A(1-54) (see Example 1). The rate of product formation was monitored by a spectrophotometer, at 400 nm for 4Np, 370 nm for PAP, and 340 nm for 3Np and HMC.

Test [1] addresses (Ac-)[…]-(2-Cl-4-nitroanilide) (HCV).
Test [2] addresses Ac-DTEDVVA(Nva)-O-3Np (HCV).
The target in test [3] is Ac-DTEDVVA(Nva)-O-4Np (HCV).
In test [4] the target is Ac-DTEDVVA(Nva)-O-HMC (HCV).
Test [5] has as its target Ac-DTEDVVA(Nva)-O-PAP (HCV).
The target in test [6] is Ac-DTEDVVP(Nva)-O-HMC (HCV).
In test [7] the target is Ac-DTEDVVP(Nva)-O-PAP (HCV).
For test [8], the target named is biotinylated amide substrates.
Test [9] concerns the target biotinylated ester substrate.

“And” between values parts separate entries of the source, which are not always exact repeats. Equal entries are not always repeated. Square brackets hold non-standard residues; d marks the D form. Peptide text beside a SMILES is read from it. * marks the point of attachment. ONp = O=[N+]([O-])c1ccc(O*)cc1; X2 = c1ccc(N=Nc2ccc(O*)cc2)cc1; X3 = O=[N+]([O-])c1cccc(O*)c1; X1 = Cc1cc(=O)oc2cc(O*)ccc12; Nva = CCC[C@H](N)C(=O)O

Take `CCC[C@H](NC(=O)[C@@H]1CCCN1C(=O)[C@@H](NC(=O)[C@@H](NC(=O)[C@H](CC(=O)O)NC(=O)[C@H](CCC(=O)O)NC(=O)[C@@H](NC(=O)[C@H](CC(=O)O)NC(C)=O)[C@@H](C)O)C(C)C)C(C)C)C(=O)Oc1ccc(N=Nc2ccccc2)cc1` [Ac-DTEDVVP(Nva)-O-PAP] (Ac-DTEDVVP[Nva]-X2): on NS3/4A(1-631)/4A(1-54), the Km worked out at 18 µM.
Still for that read-out and setting: as for `CCC[C@H](NC(=O)[C@@H]1CCCN1C(=O)[C@@H](NC(=O)[C@@H](NC(=O)[C@H](CC(=O)O)NC(=O)[C@H](CCC(=O)O)NC(=O)[C@@H](NC(=O)[C@H](CC(=O)O)NC(C)=O)[C@@H](C)O)C(C)C)C(C)C)C(=O)Oc1ccc2c(C)cc(=O)oc2c1` [Ac-DTEDVVP(Nva)-O-HMC] (Ac-DTEDVVP[Nva]-X1), the figure is 40 µM.
For “HCV NS3(1-631)/4A(1-54) protease, non-covalent complex of full-length HCV 1a(H) NS3 with amino acids (enzyme)”, the kcat/Km in test [1] was 10 M⁻¹ s⁻¹; with …-(4-nitroanilide) (HCV) it was 15 M⁻¹ s⁻¹ and 45 M⁻¹ s⁻¹; in [2], 7300 M⁻¹ s⁻¹; in test [3], 38000 M⁻¹ s⁻¹; in test [4] it was 8400 M⁻¹ s⁻¹; in test [5], 4000 M⁻¹ s⁻¹. Besides, the kcat/Km in [6] stood at 8400 M⁻¹ s⁻¹; in [7] it was 13000 M⁻¹ s⁻¹; in the test with Ac-[…](Nva)-O-4Np (HCV), 25000 M⁻¹ s⁻¹; in test […](Nva)-O-3Np (HCV), 11100 M⁻¹ s⁻¹. The catalytic efficiency in [8] is less than 30000 M⁻¹ s⁻¹; in [9], less than 460000 M⁻¹ s⁻¹.
Turning to `CCC[C@H](NC(=O)[C@H](C)NC(=O)[C@@H](NC(=O)[C@@H](NC(=O)[C@H](CC(=O)O)NC(=O)[C@H](CCC(=O)O)NC(=O)[C@@H](NC(=O)[C@H](CC(=O)O)NC(C)=O)[C@@H](C)O)C(C)C)C(C)C)C(=O)Oc1cccc([N+](=O)[O-])c1` [Ac-DTEDVVA(Nva)-O-3Np] (Ac-DTEDVVA[Nva]-X3), on NS3/4A(1-631)/4A(1-54), the Km came out at 48 µM.
On to `CCC[C@H](NC(=O)[C@H](C)NC(=O)[C@@H](NC(=O)[C@@H](NC(=O)[C@H](CC(=O)O)NC(=O)[C@H](CCC(=O)O)NC(=O)[C@@H](NC(=O)[C@H](CC(=O)O)NC(C)=O)[C@@H](C)O)C(C)C)C(C)C)C(=O)Oc1ccc(N=Nc2ccccc2)cc1` [Ac-DTEDVVA(Nva)-O-PAP] (Ac-DTEDVVA[Nva]-X2), for which the Km on NS3/4A(1-631)/4A(1-54) came out at 17 µM.
The same measure, in the same setting: as for `CCC[C@H](NC(=O)[C@H](C)NC(=O)[C@@H](NC(=O)[C@@H](NC(=O)[C@H](CC(=O)O)NC(=O)[C@H](CCC(=O)O)NC(=O)[C@@H](NC(=O)[C@H](CC(=O)O)NC(C)=O)[C@@H](C)O)C(C)C)C(C)C)C(=O)Oc1ccc2c(C)cc(=O)oc2c1` [Ac-DTEDVVA(Nva)-O-HMC] (Ac-DTEDVVA[Nva]-X1), the figure is 20 µM; as for `CCC[C@H](NC(=O)[C@H](C)NC(=O)[C@@H](NC(=O)[C@@H](NC(=O)[C@H](CC(=O)O)NC(=O)[C@H](CCC(=O)O)NC(=O)[C@@H](NC(=O)[C@H](CC(=O)O)NC(C)=O)[C@@H](C)O)C(C)C)C(C)C)C(=O)Oc1ccc([N+](=O)[O-])cc1` [Ac-DTEDVVA(Nva)-O-4Np] (Ac-DTEDVVA[Nva]-ONp), 16 µM.

One may read the Km as the substrate concentration at which the rate is half of its maximum. For orientation: kcat/Km means the second-order rate constant that governs catalysis at low substrate concentration.
